Molecular target: ectodomain of the S protein of SARS-CoV-2 B.1.1.7 (S-UK) (SARS-CoV-2) (UniProt P0DTC2)
Experiment: cryo-EM structure

“ectodomain of the S protein of SARS-CoV-2 B.1.1.7 (S-UK) (from UniProt P0DTC2 14-1208) (domain or fragment)” was tested, and the stoichiometry N was 3 protomers.

— article doi:10.1101/2021.05.11.443686
